B1: wild-type MORC2 901-1032 with Trx-tag [human] / itself (parent)
chain: LSTNHETIDLLVQILRNCLRYFLPPSFPISKKQLSAMNSDELISFPLKEYFKQYEVGLQNLCNSYQSRADSRAKASEESLRTSERKLRETEEKLQKLRTNIVALLQKVQEDIDINTDDELDAYIEDLITKGD

The variants in the experiment derive from B1. The experiment can be described thus: static light-scattering (SLS) coupled to size-exclusion chromatography. The note with it: with itself; Trx tag (14 kDa) kept on constructs. A general note: SEC sorts molecules by how far they enter the pores of the column.
Take chain 1 F22Q: the molecular mass was determined as 113 kDa.

Turning to chain 1 L11Q, the molecular mass worked out at 79.8 kDa.

The values are drawn from article PMC13189624, “MORC2 mediates transcriptional regulation through liquid-liquid phase separation” (eLife, 2026).
